Data: article PMC3919806

Target: Lrp4-myc (mouse full length Lrp4) (mouse) (UniProt Q8VI56)
UniProt Q8VI56, sequence (Q8VI56 21-1905): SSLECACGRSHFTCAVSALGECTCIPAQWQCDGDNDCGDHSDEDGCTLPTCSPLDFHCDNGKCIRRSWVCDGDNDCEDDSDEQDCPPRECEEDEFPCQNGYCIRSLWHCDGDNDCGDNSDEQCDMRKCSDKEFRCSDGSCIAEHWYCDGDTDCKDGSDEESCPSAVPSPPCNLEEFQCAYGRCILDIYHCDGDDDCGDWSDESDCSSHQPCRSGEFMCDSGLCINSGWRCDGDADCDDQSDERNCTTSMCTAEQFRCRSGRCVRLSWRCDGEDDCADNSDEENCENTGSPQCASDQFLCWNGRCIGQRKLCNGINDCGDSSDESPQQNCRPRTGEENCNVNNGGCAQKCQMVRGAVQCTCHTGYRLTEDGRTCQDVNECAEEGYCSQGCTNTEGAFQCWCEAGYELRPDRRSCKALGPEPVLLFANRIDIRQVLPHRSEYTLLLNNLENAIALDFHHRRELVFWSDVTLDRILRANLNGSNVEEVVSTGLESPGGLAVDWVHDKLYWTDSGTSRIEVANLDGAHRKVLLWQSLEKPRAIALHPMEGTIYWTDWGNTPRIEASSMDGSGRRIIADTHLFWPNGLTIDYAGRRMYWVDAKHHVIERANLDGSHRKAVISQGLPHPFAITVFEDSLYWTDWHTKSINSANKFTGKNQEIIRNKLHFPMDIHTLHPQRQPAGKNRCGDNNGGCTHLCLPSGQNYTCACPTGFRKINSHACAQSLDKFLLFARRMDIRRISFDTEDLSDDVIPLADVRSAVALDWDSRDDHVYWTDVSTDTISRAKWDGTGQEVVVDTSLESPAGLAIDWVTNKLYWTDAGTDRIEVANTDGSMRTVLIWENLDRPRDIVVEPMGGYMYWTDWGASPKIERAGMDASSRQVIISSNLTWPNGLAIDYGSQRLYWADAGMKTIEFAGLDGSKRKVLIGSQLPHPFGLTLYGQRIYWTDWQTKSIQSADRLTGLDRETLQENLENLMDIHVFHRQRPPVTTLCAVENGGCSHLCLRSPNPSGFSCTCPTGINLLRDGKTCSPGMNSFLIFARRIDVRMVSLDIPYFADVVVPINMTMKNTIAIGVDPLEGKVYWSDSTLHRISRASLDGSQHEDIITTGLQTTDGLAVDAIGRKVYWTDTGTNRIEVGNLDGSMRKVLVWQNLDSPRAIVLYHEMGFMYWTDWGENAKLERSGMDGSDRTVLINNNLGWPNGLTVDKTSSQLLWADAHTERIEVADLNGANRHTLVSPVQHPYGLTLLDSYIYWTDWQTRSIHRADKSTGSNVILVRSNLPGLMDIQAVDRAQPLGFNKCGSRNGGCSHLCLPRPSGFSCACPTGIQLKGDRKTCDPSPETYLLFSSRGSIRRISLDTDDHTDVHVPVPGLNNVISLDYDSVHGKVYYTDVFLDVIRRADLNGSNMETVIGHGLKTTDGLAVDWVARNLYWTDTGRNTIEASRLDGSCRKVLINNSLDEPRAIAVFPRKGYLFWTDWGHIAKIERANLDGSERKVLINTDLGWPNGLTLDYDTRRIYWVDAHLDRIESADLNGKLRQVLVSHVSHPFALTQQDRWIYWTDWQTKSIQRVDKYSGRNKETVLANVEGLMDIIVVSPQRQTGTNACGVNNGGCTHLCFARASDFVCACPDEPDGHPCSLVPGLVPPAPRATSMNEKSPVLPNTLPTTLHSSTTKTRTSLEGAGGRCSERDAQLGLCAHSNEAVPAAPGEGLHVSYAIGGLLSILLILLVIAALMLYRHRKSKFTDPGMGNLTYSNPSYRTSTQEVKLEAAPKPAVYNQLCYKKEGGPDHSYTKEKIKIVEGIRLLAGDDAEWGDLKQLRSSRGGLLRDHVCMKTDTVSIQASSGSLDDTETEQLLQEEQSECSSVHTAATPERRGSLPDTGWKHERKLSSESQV

Question: Which AChR clustering on differentiated C2C12 myotubes, 16 h (area of AChR clusters normalized to myotube area), EC50 does the source give for “NT-1654, C-terminal 44 kDa fragment of murine agrin (from UniProt A2ASQ1 1519-1950) (domain or fragment)” here?
Answer: 0.44 nM
